The numbers were not newly measured in article PMC6731456, which cites them from elsewhere.

In this series the target is Apelin receptor (Homo sapiens) (UniProt P35414).
UniProt P35414, sequence (P35414 whole entry): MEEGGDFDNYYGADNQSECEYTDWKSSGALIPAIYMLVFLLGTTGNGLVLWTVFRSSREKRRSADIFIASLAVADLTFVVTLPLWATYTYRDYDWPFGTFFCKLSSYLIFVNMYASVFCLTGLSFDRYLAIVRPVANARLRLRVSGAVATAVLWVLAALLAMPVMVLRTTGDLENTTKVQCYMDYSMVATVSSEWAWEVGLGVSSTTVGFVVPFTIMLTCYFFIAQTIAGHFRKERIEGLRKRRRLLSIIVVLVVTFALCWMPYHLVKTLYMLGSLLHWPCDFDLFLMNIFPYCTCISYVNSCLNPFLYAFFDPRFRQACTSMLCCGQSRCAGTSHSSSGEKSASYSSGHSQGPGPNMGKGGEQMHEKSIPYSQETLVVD

In the case of Protamine (from UniProt P69014), the Ki is 390 nM.

As usually defined, the Ki is a dissociation constant, usually derived from enzyme kinetics or from competition with a known ligand.
